The target of test [1] is N-terminally biotinylated HSP27 IXI peptide 178…186 (F185H), unmodified (human). Nature of the test: SPR.
Test [2] addresses HSP27 alpha crystallin domain (ACD) (human). Nature of the test: ITC. (Isothermal titration calorimetry measures the heat released or taken up as one component is titrated into another.)

No end group written: not given here.

What is called Kd is the concentration at which binding is half-saturated.

As for “HSP27 alpha crystallin domain (ACD) (domain or fragment)”, in test [1], the Kd worked out at 3.14 µM.

On to EITIPVTHE (not fully specified) [HSP27 IXI peptide 178…186 (F185H), unmodified, without biotin], for which the Kd in test [2] is 14.3 µM.

(Values after publication PMC8102337.)
